# Laboratory results: article PMC1849897
# Like-named read-outs stand apart in the source and are kept apart here.
# What was measured:
# Assay in all cases: filter binding
# [1] = target: T1, Py-DmBLM (Drosophila Bloom's syndrome helicase) (Drosophila, UniProt Q9VGI8 1-1487)
# [2] = target: T1, Py-DmBLM (Drosophila Bloom's syndrome …); remark: listed apart in the source
# [3] = target: T1, Py-DmBLM (Drosophila Bloom's syndrome …); remark: listed apart in the source
# T1 sequence (Q9VGI8 whole entry): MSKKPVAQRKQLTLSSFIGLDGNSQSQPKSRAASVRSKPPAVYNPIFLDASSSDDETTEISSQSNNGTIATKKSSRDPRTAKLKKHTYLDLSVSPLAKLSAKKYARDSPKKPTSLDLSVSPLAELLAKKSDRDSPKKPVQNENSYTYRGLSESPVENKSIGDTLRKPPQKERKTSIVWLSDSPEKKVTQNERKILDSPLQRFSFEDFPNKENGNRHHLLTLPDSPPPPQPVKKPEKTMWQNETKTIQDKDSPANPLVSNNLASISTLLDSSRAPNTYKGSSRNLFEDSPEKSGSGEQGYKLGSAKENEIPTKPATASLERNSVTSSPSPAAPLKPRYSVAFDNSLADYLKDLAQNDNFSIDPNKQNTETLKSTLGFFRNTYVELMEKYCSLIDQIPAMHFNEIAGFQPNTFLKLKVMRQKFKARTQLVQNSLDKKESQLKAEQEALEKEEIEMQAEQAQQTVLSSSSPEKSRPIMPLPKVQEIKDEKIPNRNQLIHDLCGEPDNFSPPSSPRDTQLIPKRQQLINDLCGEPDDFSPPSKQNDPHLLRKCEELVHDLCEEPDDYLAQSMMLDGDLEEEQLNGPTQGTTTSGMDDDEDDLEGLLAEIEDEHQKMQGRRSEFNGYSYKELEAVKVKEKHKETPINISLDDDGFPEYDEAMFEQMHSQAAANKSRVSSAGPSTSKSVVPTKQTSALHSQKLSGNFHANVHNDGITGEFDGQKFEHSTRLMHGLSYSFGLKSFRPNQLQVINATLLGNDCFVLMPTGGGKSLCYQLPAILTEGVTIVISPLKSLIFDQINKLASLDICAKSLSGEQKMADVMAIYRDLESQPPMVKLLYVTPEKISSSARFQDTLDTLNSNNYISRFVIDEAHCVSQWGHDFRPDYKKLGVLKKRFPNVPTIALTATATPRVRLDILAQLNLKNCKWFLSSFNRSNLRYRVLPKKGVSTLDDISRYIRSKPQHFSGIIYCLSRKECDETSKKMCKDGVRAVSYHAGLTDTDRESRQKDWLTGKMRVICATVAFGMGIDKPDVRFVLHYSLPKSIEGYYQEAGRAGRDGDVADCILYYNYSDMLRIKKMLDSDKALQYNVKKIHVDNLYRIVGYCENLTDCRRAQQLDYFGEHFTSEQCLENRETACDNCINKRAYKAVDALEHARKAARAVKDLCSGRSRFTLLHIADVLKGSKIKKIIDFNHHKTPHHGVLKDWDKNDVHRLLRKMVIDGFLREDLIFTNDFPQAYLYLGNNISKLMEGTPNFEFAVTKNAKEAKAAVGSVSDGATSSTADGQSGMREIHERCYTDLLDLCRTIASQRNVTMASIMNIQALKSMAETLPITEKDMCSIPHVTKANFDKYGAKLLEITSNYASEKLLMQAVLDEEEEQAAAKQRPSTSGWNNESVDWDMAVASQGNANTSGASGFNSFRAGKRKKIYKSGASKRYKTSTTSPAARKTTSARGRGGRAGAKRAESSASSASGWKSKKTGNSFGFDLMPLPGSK
binder,measurement,setting,value
3' Tail (o1/o2) (mixed) DNA 1: GACGCTGCCGAATTCTGGCTTGCTAGGACATCTTTGCCCACGTTGACCCG DNA 2: ATGTCCTAGCAAGCCAGAATTCGGCAGCGTC,binding result,[1],binds
GACGCTGCCGAATTCTGGCTTGCTAGGACATCTTTGCCCACGTTGACCCG (ssDNA) [o1],binding result,[2],binds
Forked (o1/o3) (mixed) DNA 1: GACGCTGCCGAATTCTGGCTTGCTAGGACATCTTTGCCCACGTTGACCCG DNA 2: CGAATAATCGTCATGTCCTAGCAAGCCAGAATTCGGCAGCGTC,binding result,[3],binds
